{"source": "patent US8431396B2", "about": "“Anti-angiogenic peptides” (The Cleveland Clinic Foundation, priority 2003, dated 2013)", "molecules": {"B1": {"name": "TIMP3: tissue inhibitor of metalloproteinases-3; recombinant human form expressed in NSO myeloma cells, or wild-type expressed in transfected cells (protein, listed as Homo sapiens)", "chain": "MTPWLGLIVLLGSWSLGDWGAEACTCSPSHPQDAFCNSDIVIRAKVVGKKLVKEGPFGTLVYTIKQMKMYRGFTKMPHVQYIHTEASESLCGLKLEVNKYQYLLTGRVYDGKMYTGLCNFVERWDQLTLSQRKGLNYRYHLGCNCKIKSCYYLPCFVTSKNECLWTDMLSNFGYPGYQSKHYACIRQKGGYCSWYRGWAPPDKSIINATDP"}}, "key": {"[1]": {"test_system": "chick embryo chorioallantoic membrane (CAM)", "assay": "Chick embryo chorioallantoic membrane (CAM) assay of VEGF-mediated angiogenesis", "format": "in vivo, chicken", "conditions": "VEGF165 100 ng", "source_text": "The CAM assay was done as described with slight modifications. Fertilized 3-day-old white Leghorn eggs (Sunnyside, Beaver Dam, Wis.) were cracked and embryos with the yolk intact were placed in glass-bottomed Petri dishes. […] Angiogenesis was reported as the angiogenic index (mean number of tertiary branchpoints from experimental conditions minus the mean number of branchpoints from buffer controls with no angiogenic stimulator)."}, "PAEKDR cells": {"test_system": "PAEKDR cells", "assay": "VEGF-stimulated actin reorganization / membrane ruffles", "format": "cell-based, porcine", "conditions": "50 ng/ml VEGF for 15 min", "method": "For immunostaining, subconfluent cells cultured on Falcon cultureslides (BD, Biosciences) were used. For surface KDR detection, cells were fixed in 1% paraformaldehyde for 10 min at 4° C. Following blocking with 1% BSA cells were incubated with anti-extracellular VEGFR-2 monoclonal antibody for 1 h at room temperature. Surface KDR was detected with biotinylated anti-mouse […] (1:1000) and Texas Red avidin D (1:1500) using standard procedures. […] The cells were fixed with 3.7% paraformaldehyde in PBS for 30 min at 4° C. and permeabilized with 0.2 Triton X-100 for 20 min at room temperature. Following rinsing with PBS the cells were incubated with fluorescein isothiocyanate (FITC)-labeled phalloidin in PBS (0.66 μg/ml, Sigma) for 20 min at room temperature washed with PBS and analyzed by fluorescence microscopy."}, "endothelial cells": {"test_system": "endothelial cells", "assay": "Competitive displacement of [125I]TIMP3 from the surface of endothelial cells", "format": "binding", "conditions": "unlabeled VEGF 2 μg/ml, TIMP3 10 μg/ml", "method": "(§1) Immunoprecipitation of cell lysates with antibodies specific for TIMP3 was followed by immunoblotting with antibodies specific for KDR (top). As a control for KDR receptor, cell lysates were immunoprecipitated with anti-bodies specific for KDR and probed with antibodies specific for KDR Immunoprecipitation with antibodies specific for KDR and immunoblotting with antibodies specific for TIMP3 (bottom) were carried out on PAE-KDR cells exposed to recombinant TIMP3 or PAE-KDR-vector and PAE-KDR cells overexpressing TIMP3, to confirm the interaction. […] Competition with unlabeled TIMP3 was carried out to ensure specificity. […] (E) In vivo interaction of KDR and TIMP3 in human placenta. Immunoprecipitation using antibodies specific TIMP3 (top) and KDR (bottom) was followed by immunoblotting with antibodies specific for KDR (top) and TIMP3 (bottom)."}, "VEGF": {"molecular_target": "T1, VEGF (Homo sapiens, UniProt P15692)", "T1 construct": "purchased Genentech (gift, not bought)", "T1 sequence (P15692 27-191 isoform P15692-4)": "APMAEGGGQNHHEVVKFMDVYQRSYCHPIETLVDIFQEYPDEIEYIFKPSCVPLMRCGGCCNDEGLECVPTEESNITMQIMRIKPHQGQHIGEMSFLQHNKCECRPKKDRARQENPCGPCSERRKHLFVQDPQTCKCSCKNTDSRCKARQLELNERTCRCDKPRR", "assay": "Solid-phase direct binding of [125I]VEGF to wells coated with TIMPs"}, "KDR-IgG": {"molecular_target": "T2, KDR-IgG (Homo sapiens, UniProt P35968)", "T2 construct": "purchased R&D Systems", "T2 sequence (P35968 20-764 limits assumed)": "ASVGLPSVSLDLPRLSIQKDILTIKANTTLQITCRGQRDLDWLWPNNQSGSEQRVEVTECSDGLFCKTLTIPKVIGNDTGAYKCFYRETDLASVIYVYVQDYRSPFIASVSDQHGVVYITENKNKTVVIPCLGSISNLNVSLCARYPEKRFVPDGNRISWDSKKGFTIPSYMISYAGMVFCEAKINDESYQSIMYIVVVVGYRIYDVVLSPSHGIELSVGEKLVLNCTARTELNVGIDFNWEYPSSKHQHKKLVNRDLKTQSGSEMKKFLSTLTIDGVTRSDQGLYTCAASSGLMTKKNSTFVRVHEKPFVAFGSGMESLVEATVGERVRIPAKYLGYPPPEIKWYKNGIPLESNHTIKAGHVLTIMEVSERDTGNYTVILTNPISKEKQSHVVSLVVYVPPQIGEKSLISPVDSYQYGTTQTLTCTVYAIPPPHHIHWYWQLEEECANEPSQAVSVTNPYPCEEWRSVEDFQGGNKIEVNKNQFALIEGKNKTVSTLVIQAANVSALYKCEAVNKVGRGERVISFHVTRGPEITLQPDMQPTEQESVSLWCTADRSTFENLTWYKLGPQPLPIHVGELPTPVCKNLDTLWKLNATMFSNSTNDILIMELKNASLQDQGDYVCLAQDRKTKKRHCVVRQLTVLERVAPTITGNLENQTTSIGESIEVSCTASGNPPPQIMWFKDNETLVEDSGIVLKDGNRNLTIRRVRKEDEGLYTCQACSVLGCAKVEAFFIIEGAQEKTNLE", "assay": "Cross-linking of [125I]TIMP3 to soluble KDR", "format": "binding", "conditions": "bis(sulfosuccinimidyl)suberate", "method": "as §1\nLigand-receptor complexes on the cell surface were crosslinked with 0.5 mM disuccinimidyl suberate (Pierce) and analyzed by immunoprecipitation and SDS-PAGE followed by autoradiography. For in vitro assays, radioligand was crosslinked with 250 ng soluble KDR."}, "KDR": {"molecular_target": "T3, KDR (Homo sapiens, UniProt P35968)", "T3 construct": "To determine whether these receptor isoforms represent full-length VEGFR-2; expressed in transfected cells; host or cells: porcine aortic endothelial (PAE) cells", "T3 sequence (P35968 20-1356)": "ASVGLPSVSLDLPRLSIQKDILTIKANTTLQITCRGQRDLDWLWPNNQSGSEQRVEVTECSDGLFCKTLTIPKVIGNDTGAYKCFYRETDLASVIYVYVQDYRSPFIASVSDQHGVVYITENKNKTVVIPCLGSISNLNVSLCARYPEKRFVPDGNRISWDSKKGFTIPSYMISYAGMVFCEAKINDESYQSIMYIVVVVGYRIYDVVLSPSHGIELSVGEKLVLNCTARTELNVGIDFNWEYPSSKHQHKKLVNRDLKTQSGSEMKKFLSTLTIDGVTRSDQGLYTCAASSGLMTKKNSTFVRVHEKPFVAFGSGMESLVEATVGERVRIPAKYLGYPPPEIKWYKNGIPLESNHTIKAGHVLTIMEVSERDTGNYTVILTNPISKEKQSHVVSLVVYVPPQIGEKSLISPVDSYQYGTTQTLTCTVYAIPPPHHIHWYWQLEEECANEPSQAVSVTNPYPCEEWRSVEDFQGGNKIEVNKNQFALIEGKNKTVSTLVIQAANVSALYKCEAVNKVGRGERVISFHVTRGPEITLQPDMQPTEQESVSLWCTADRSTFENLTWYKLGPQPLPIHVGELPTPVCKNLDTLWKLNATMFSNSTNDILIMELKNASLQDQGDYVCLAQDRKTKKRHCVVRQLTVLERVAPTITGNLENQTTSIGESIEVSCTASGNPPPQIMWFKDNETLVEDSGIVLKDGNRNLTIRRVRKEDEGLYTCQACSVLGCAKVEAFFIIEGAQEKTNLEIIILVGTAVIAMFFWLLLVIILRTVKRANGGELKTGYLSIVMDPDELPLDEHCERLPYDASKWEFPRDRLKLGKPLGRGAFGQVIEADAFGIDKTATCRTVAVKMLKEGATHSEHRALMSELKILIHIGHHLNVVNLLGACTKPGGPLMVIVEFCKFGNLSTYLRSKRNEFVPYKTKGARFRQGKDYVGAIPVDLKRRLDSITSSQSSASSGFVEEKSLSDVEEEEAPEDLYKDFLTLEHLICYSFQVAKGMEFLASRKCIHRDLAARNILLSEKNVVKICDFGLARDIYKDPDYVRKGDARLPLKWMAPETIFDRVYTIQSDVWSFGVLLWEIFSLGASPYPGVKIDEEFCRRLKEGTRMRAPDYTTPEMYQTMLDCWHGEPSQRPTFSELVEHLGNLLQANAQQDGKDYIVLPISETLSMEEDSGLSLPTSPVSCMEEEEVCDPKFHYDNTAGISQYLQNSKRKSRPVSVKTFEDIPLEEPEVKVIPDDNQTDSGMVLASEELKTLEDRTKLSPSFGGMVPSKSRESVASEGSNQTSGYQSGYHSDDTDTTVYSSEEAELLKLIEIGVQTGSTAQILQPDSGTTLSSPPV", "assay": "[125I]VEGF binding to the surface of PAE-KDR cells", "conditions": "pretreatment with recombinant protein", "method": "Radioligand binding is expressed as percent binding and is the mean±s.e.m. of triplicate samples. […] All values are expressed as mean±s.e.m. of triplicate samples. […] Binding is expressed as mean±s.e.m.\nData were analyzed by Scatchard plot analyses."}, "PAE-KDR cells": {"test_system": "PAE-KDR cells", "assay": "Endothelial cell proliferation in response to VEGF165 and VEGF121", "format": "cell-based, porcine", "method": "(A) Proliferative response of PAE-KDR cells to VEGF165 (5 ng/ml; left) and VEGF121 (30 ng/ml; right). […] (C) DNA synthesis of endothelial cells in response to VEGF165. […] [3H]thymidine incorporation was measured during the last 5 h of incubation. (D) Analysis of endothelial cell expressing TIMP3. […] Expression of TIMP3 protein was determined by immunoblotting with antibody against TIMP3 (top left). MMP-inhibitory activity was determined by reverse zymography (top right). Corresponding densito-metric quantitation is expressed as arbitrary optical density (OD) units±s.d. (C) DNA synthesis in adenovirus-infected cells in response to VEGF. […] In all proliferation experiments, total number of cells was counted at 48 h. Proliferating cell number is expressed as means±s.e.m. of quadruplicate samples. DNA synthesis data represent the means±s.e.m. of triplicate samples; similar results were obtained in at least 2 different experiments. *, P<0.01.\n(§2) A modified Boyden chamber assay for migration and proliferation assays were carried out as described."}, "[2]": {"test_system": "MS1 mouse endothelial cells", "assay": "MS1 endothelial cells infected with adenovirus expressing WT-TIMP3 or TIMP3Cys1-Ser: apoptosis and [3H]thymidine incorporation", "format": "cell-based", "conditions": "MS1 cells infected with wild-type or mutant virus", "method": "MS1 mouse endothelial cells\\(American Type Culture Collection, Manassas, Va.) were cultured until 80% confluent and infected with adenovirus as described. Cells were infected at 50 or 200 plaque-forming units per cell for 18 h. Medium was then replaced with fresh complete medium and left for 48 h until analysis.\nas §2"}, "PDGFR-β": {"molecular_target": "T4, PDGFR-β (Homo sapiens, UniProt P09619)", "T4 construct": "expressed in transfected cells; host or cells: porcine aortic endothelial (PAE) cells", "T4 sequence (P09619 33-1106, species assumed)": "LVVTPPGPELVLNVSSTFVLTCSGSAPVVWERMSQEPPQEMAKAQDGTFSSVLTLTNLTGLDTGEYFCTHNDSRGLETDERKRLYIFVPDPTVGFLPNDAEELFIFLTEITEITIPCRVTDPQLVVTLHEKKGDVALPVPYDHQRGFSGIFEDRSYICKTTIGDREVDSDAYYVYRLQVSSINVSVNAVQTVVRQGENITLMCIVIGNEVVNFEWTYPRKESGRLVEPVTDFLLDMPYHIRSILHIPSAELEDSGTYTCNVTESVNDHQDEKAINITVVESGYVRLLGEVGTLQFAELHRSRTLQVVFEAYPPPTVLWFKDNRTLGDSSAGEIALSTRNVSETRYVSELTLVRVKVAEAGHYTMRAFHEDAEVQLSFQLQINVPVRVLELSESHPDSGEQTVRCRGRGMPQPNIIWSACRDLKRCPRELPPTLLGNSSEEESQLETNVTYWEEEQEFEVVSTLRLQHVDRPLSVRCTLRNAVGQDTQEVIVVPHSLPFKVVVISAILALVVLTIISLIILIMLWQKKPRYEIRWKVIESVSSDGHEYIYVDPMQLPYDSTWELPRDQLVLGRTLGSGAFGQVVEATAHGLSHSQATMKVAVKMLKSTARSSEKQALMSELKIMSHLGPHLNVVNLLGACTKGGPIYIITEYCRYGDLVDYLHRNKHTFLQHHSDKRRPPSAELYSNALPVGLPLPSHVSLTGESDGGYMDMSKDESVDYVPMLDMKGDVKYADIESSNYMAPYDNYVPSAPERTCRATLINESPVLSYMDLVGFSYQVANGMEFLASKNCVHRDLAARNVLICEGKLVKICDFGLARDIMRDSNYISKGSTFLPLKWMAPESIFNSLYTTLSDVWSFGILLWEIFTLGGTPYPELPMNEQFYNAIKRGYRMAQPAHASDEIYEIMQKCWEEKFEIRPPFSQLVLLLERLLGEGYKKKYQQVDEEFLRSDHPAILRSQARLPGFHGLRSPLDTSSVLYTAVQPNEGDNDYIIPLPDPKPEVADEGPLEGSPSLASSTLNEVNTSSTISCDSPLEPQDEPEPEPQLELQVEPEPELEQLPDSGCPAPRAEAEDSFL", "assay": "PDGF-BB-induced PDGFR-β phosphorylation (immunoprecipitation/immunoblot)", "format": "cell-based", "conditions": "1 μg/ml; PAE-PDGFR-β cells", "method": "PDGF-BB-mediated phosphorylation was examined similarly in PAESPDGFR-β cells (anti-PDGFR-β; top right panel). […] PDGF-BB-mediated phosphorylation of PDGFR-β in PAE-PDGFR-β cells overexpressing TIMP3 (top right). KDR protein or PDGFR-β protein was analyzed by both immunoprecipitation and immunoblotting with antibodies specific for KDR (left) or for PDGFR-β (right; A and B, second panels from top). […] Total protein levels of ERK were determined by immunoblotting with antibodies specific for ERK1/2 (anti-ERK1/2; A and B, bottom).\nCell fractions, prepared as described earlier, or immunoprecipitates of the lysates with the indicated antibodies, were subjected to SDS-PAGE. Proteins were detected with horseradish peroxidase-conjugated antibodies specific for either rabbit or mouse IgG (Amersham Pharmacia, Piscataway, N.J.) followed by enhanced chemiluminescence."}}, "data": [{"molecule": "B1", "values": [{"measurement": "CAMs in which VEGF-induced branching and leakage of blood vessels were inhibited", "setting": "[1]; 0.75 μg/disk, n=8", "result": 75, "unit": "%"}, {"measurement": "CAMs in which VEGF-induced branching and leakage of blood vessels were inhibited", "setting": "[1]; […], n=10", "result": 90, "unit": "%"}, {"measurement": "VEGF-stimulated formation of membrane ruffles", "setting": "PAEKDR cells", "result": "did not form membrane ruffles"}, {"measurement": "inhibition of binding of labeled TIMP3 to the surface of endothelial cells", "setting": "endothelial cells", "result": "could inhibit the binding of labeled TIMP3"}, {"measurement": "direct binding of [125I]VEGF to coated TIMP", "setting": "VEGF", "result": "did not detect direct binding"}, {"measurement": "direct binding of [125I]TIMP3 to KDR-IgG by cross-linking", "setting": "KDR-IgG", "result": "could be covalently cross-linked to KDR-IgG"}, {"measurement": "IC50 for inhibition of [125I]VEGF binding to PAE-KDR cells", "setting": "KDR", "result": "3.3 to 4.5", "unit": "µg/mL"}, {"measurement": "inhibition of proliferative response to VEGF165 and VEGF121", "setting": "PAE-KDR cells; added exogenously at 0.3-1 μg/ml", "result": "inhibited the proliferative response"}, {"measurement": "proliferative response to VEGF165 and VEGF121", "setting": "PAE-KDR cells; over-expression of TIMP3 in endothelial cells", "result": "attenuation of the proliferative response"}, {"measurement": "dose required to block the biological responses of in vivo angiogenesis, endothelial cell proliferation and migration", "setting": "PAE-KDR cells; summary over CAM, proliferation and migration assays", "result": "0.3-3 μg/ml"}, {"measurement": "apoptosis after adenovirus infection", "setting": "[2]", "result": "No apoptosis was observed"}, {"measurement": "effect on phosphorylation of PDGFR-β stimulated with PDGF-BB", "setting": "PDGFR-β", "result": "did not affect"}]}]}
